The supplement of paper PMC11246515
± gives the standard deviation of the averaged measurements.

Assay: total protein half-life in vivo (active degradation + dilution); higher = more stable protein
[1] = E. coli NCM3722 delta-clpP delta-lon delta-hslV, growth: N-lim chemostat, doubling time 6 h
[2] = E. coli NCM3722 delta-clpP, growth: N-lim chemostat, doubling time 6 h
[3] = E. coli NCM3722 delta-hslV, growth: N-lim chemostat, doubling time 6 h
[4] = E. coli NCM3722 delta-lon, growth: N-lim chemostat, doubling time 6 h
[5] = E. coli NCM3722 delta-smpB, growth: N-lim chemostat, doubling time 6 h
[6] = wild type E. coli NCM3722, growth: C-lim chemostat, doubling time 3 h
[7] = wild type E. coli NCM3722, growth: C-lim chemostat, doubling time 6 h
[8] = wild type E. coli NCM3722, growth: C-lim chemostat, doubling time 12 h
[9] = wild type E. coli NCM3722, growth: N-lim chemostat, doubling time 6 h
[10] = wild type E. coli NCM3722, growth: N-lim chemostat, doubling time 12 h
[11] = wild type E. coli NCM3722, growth: P-lim chemostat, doubling time 6 h
[12] = wild type E. coli NCM3722, growth: P-lim chemostat, doubling time 12 h

| Sequence | total protein half-life in vivo [1] [h] | total protein half-life in vivo [2] [h] | total protein half-life in vivo [3] [h] | total protein half-life in vivo [4] [h] | total protein half-life in vivo [5] [h] | total protein half-life in vivo [6] [h] | total protein half-life in vivo [7] [h] | total protein half-life in vivo [8] [h] | total protein half-life in vivo [9] [h] | total protein half-life in vivo [10] [h] | total protein half-life in vivo [11] [h] | total protein half-life in vivo [12] [h] |
| --- | --- | --- | --- | --- | --- | --- | --- | --- | --- | --- | --- | --- |
| MQVSRRQFFKICAGGMAGTTAAALGFAPSVALAETRQYKLLRTRETRNTCTYCSVGCGLLMYSLGDGAKNAKASIFHIEGDPDHPVNRGALCPKGAGLVDFIHSESRLKFPEYRAPGSDKWQQISWEEAFDRIAKLMKEDRDANYIAQNAEGVTVNRWLSTGMLCASASSNETGYLTQKFSRALGMLAVDNQARVUHGPTVASLAPTFGRGAMTNHWVDIKNANLVVVMGGNAAEAHPVGFRWAMEAKIHNGAKLIVIDPRFTRTAAVADYYAPIRSGTDIAFLSGVLLYLLNNEKFNREYTEAYTNASLIVREDYGFEDGLFTGYDAEKRKYDKSSWTYELDENGFAKRDTTLQHPRCVWNLLKQHVSRYTPDVVENICGTPKDAFLKVCEYIAETSAHDKTASFLYALGWTQHSVGAQNIRTMAMIQLLLGNMGMAGGGVNALRGHSNIQGLTDLGLLSQSLPGYMTLPSEKQTDLQTYLTANTPKPLLEGQVNYWGNYPKFFVSMMKAFFGDKATAENSWGFDWLPKWDKGYDVLQYFEMMKEGKVNGYICQGFNPVASFPNKNKVIGCLSKLKFLVTIDPLNTETSNFWQNHGELNEVDSSKIQTEVFRLPSTCFAEENGSIVNSGRWLQWHWKGADAPGIALTDGEILSGIFLRLRKMYAEQGGANPDQVLNMTWNYAIPHEPSSEEVAMESNGKALADITDPATGAVIVKKGQQLSSFAQLRDDGTTSCGCWIFAGSWTPEGNQMARRDNADPSGLGNTLGWAWAWPLNRRILYNRASADPQGNPWDPKRQLLKWDGTKWTGWDIPDYSAAPPGSGVGPFIMQQEGMGRLFALDKMAEGPFPEHYEPFETPLGTNPLHPNVISNPAARIFKDDAEALGKADKFPYVGTTYRLTEHFHYWTKHALLNAILQPEQFVEIGESLANKLGIAQGDTVKVSSNRGYIKAKAVVTKRIRTLKANGKDIDTIGIPIHWGYEGVAKKGFIANTLTPFVGDANTQTPEFKSFLVNVEKV | 5.155 ± 0.0061 | 4.77 ± 0.55 | 6.6 | 5.502 ± 0.033 | 4.72 | > 4 | 5.8 | 11.4 ± 0.86 | 5.89 | 10.4 ± 0.35 | 4.79 ± 0.5 | 8.459 ± 0.046 |
| MAQRDYVRRSQPAPSRRKKSTSRKKQRNLPAVSPAMVAIAAAVLVTFIGGLYFITHHKKEESETLQSQKVTGNGLPPKPEERWRYIKELESRQPGVRAPTEPSAGGEVKTPEQLTPEQRQLLEQMQADMRQQPTQLVEVPWNEQTPEQRQQTLQRQRQAQQLAEQQRLAQQSRTTEQSWQQQTRTSQAAPVQAQPRQSKPASSQQPYQDLLQTPAHTTAQSKPQQAAPVARAADAPKPTAEKKDERRWMVQCGSFRGAEQAETVRAQLAFEGFDSKITTNNGWNRVVIGPVKGKENADSTLNRLKMAGHTNCIRLAAGG | 4.824 ± 0.04 | 6.54 ± 1.9 | 5.87 ± 0.74 | 5.94 ± 0.43 | 4.76 ± 0.2 | 3 ± 0.038 | 5.351 ± 0.053 | 9.17 ± 0.79 | 5.27 ± 0.25 | 10.2 ± 0.24 | 4.421 ± 0.02 | 9.11 ± 0.63 |
| MTTMLEVAKRAGVSKATVSRVLSGNGYVSQETKDRVFQAVEESGYRPNLLARNLSAKSTQTLGLVVTNTLYHGIYFSELLFHAARMAEEKGRQLLLADGKHSAEEERQAIQYLLDLRCDAIMIYPRFLSVDEIDDIIDAHSQPIMVLNRRLRKNSSHSVWCDHKQTSFNAVAELINAGHQEIAFLTGSMDSPTSIERLAGYKDALAQHGIALNEKLIANGKWTPASGAEGVEMLLERGAKFSALVASNDDMAIGAMKALHERGVAVPEQVSVIGFDDIAIAPYTVPALSSVKIPVTEMIQEIIGRLIFMLDGGDFSPPKTFSGKLIRRDSLIAPSR |  | 4.95 | 3.46 ± 0.2 | 4.26 ± 0.14 | 3.44 ± 0.13 | 3 ± 0.72 | 4.91 ± 0.77 | 8.06 ± 0.59 | 3.59 | 5.73 ± 0.34 | 2.66 ± 0.17 | 7.06 ± 0.59 |
| MNYELLTTENAPVKMWTKGVPVEADARQQLINTAKMPFIFKHIAVMPDVHLGKGSTIGSVIPTKGAIIPAAVGVDIGCGMNALRTALTAEDLPENLAELRQAIETAVPHGRTTGRCKRDKGAWENPPVNVDAKWAELEAGYQWLTQKYPRFLNTNNYKHLGTLGTGNHFIEICLDESDQVWIMLHSGSRGIGNAIGTYFIDLAQKEMQETLETLPSRDLAYFMEGTEYFDDYLKAVAWAQLFASLNRDAMMENVVTALQSITQKTVRQPQTLAMEEINCHHNYVQKEQHFGEEIYVTRKGAVSARAGQYGIIPGSMGAKSFIVRGLGNEESFCSCSHGAGRVMSRTKAKKLFSVEDQIRATAHVECRKDAEVIDEIPMAYKDIDAVMAAQSDLVEVIYTLRQVVCVKG | 5.37 ± 0.74 |  | 1.46 ± 0.41 | 2.04 ± 0.29 | 1.46 ± 0.066 | 1.6 ± 0.19 | 2.78 ± 0.54 | 3.19 ± 0.052 | 1.73 | 1.67 ± 0.49 | 1.98 ± 0.61 | 3.92 ± 0.64 |
| MSIKLIAVDMDGTFLSDQKTYNRERFMAQYQQMKAQGIRFVVASGNQYYQLISFFPEIANEIAFVAENGGWVVSEGKDVFNGELSKDAFATVVEHLLTRPEVEIIACGKNSAYTLKKYDDAMKTVAEMYYHRLEYVDNFDNLEDIFFKFGLNLSDELIPQVQKALHEAIGDIMVSVHTGNGSIDLIIPGVHKANGLRQLQKLWGIDDSEVVVFGDGGNDIEMLRQAGFSFAMENAGSAVVAAAKYRAGSNNREGVLDVIDKVLKHEAPFDQ | 4.81 ± 0.67 | 2.026 ± 0.013 | 1.78 ± 0.4 | 2.53 ± 0.083 | 1.92 ± 0.13 | 2.44 ± 0.25 | 3.96 ± 0.16 | 6.88 ± 0.18 | 2.08 ± 0.059 | 2.73 ± 0.66 | 2.7 ± 0.7 | 7.59 ± 3.2 |
| MKIGIIGAMEEEVTLLRDKIENRQTISLGGCEIYTGQLNGTEVALLKSGIGKVAAALGATLLLEHCKPDVIINTGSAGGLAPTLKVGDIVVSDEARYHDADVTAFGYEYGQLPGCPAGFKADDKLIAAAEACIAELNLNAVRGLIVSGDAFINGSVGLAKIRHNFPQAIAVEMEATAIAHVCHNFNVPFVVVRAISDVADQQSHLSFDEFLAVAAKQSSLMVESLVQKLAHG [P0AF12] | 4.9 ± 0.49 | 4.39 ± 0.069 | 4.42 ± 0.2 |  | 5.43 ± 0.68 | 3.27 ± 0.28 | 6.36 ± 0.19 | 12.6 ± 1.4 | 4.85 ± 0.48 | 8.24 ± 0.78 | 5.73 ± 0.097 | 12.1 ± 0.39 |
| MSTRTPSSSSSRLMLTIGLCFLVALMEGLDLQAAGIAAGGIAQAFALDKMQMGWIFSAGILGLLPGALVGGMLADRYGRKRILIGSVALFGLFSLATAIAWDFPSLVFARLMTGVGLGAALPNLIALTSEAAGPRFRGTAVSLMYCGVPIGAALAATLGFAGANLAWQTVFWVGGVVPLILVPLLMRWLPESAVFAGEKQSAPPLRALFAPETATATLLLWLCYFFTLLVVYMLINWLPLLLVEQGFQPSQAAGVMFALQMGAASGTLMLGALMDKLRPVTMSLLIYSGMLASLLALGTVSSFNGMLLAGFVAGLFATGGQSVLYALAPLFYSSQIRATGVGTAVAVGRLGAMSGPLLAGKMLALGTGTVGVMAASAPGILVAGLAVFILMSRRSRIQPCADA |  |  |  |  |  |  |  | 5.24 |  |  |  |  |
